Test results reported in patent US20120231005A1 (Merck Sharp & Dohme, published 2012).

How the values were obtained:
[1] = target: T1, human PCSK9 (human, UniProt Q8NBP7 31-692, limits assumed); assay: SPR (Biacore); IgG captured on anti-human IgG, PCSK9 injected
T1 construct: It carried an AlexaFluor647 label in the TR-FRET assay only; also called hPCSK9; wild type human PCSK9
Description: The affinities of those IgG molecules were also measured by Biacore assay. Briefly, anti-human IgG monoclonal antibody form Human Antibody Capture Kit provided by Biacore was immobilized on CM5 chips at a level of 8000 to 10000 RU. […] After each round injection, the sensor chip surface was regenerated by 30 second injection of 3M Magnesium Chloride.

[2] = target: rhesus PCSK9 (rhesus); assay: as above
[3] = target: T1, human PCSK9; assay: cell-based or functional assay
[4] = target: T1, human PCSK9; assay: SPR (Biacore); Fab captured on anti-Fab IgG, PCSK9 injected; 1:1 Langmuir fit
Description: First, goat anti-Fab IgGs were immobilized onto CM5 chip by amine coupling as described above. The anti-Fab IgGs were diluted to 200 μg/ml in pH 5/10 mM Acetate solution, and injected onto the NHS/EDC activated surface to achieve an immobilization level of ˜10,000 RU, followed with surface inactivation by injection of Ethanolamine. […] The sensor chip surface was regenerated by 30 second injection of 100 mM phosphoric acid. The binding sensorgrams were fitted with 1:1 Langmuir binding model to determine the binding affinity.

T1 sequence (Q8NBP7 31-692 limits assumed): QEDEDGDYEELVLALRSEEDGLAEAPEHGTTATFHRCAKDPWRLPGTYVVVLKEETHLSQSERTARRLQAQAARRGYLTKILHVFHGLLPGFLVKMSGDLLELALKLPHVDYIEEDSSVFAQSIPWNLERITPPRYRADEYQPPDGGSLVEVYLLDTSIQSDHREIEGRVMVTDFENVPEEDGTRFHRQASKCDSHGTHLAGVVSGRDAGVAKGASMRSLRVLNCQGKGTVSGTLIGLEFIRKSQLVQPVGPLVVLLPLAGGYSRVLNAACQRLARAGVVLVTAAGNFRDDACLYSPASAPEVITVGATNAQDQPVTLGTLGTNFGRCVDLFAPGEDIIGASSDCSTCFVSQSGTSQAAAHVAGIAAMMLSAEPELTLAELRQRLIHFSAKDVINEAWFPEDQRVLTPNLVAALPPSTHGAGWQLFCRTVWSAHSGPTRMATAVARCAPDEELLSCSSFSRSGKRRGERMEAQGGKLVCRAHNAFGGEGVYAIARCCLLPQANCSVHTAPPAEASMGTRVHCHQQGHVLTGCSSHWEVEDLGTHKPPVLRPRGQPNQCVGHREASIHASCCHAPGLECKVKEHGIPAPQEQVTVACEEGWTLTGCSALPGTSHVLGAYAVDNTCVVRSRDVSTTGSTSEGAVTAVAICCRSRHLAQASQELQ

Binder | Kd [4] | also measured
AX422 IgG2 (antibody, V domains shown, also called AX422 (55N to S)) VH: EVQLLESGGGLVQPGGSLRLSCKASGYTFSSYWMHWVRQAPGKGLEWIGRIDPYSGGTKYNEKFKGKATISRDNSKNTLYLQMNSLRAEDTAVYYCARYGYYLGSYAMDYWGQGTLVTVSS VL: DIQMTQSPSSLSASVGDRVTITCRASQDVSRYLTWYQQKPGKAPKLLIYAASSLQSGVPSRFSGSGSGTDFTLTISSLQPEDFATYYCQAYDYSLSGYVFGGGTKVEIKR | – | Kd [1]: 2.12 nM; Kd [2]: 1.96 nM; IgG IC50 (nM), inhibition of PCSK9 on LDL uptake (Exopolar assay) [3]: 5 nM
AX1 Fab (Fab, V domains shown, Soluble Fab from E. coli TG1 periplasm; Tags encoded by the display vector are not described for the protein) VH: EVQLLESGGGLVQPGGSLRLSCKASGFTFTSYYMHWVRQAPGKGLEWIGRINPDSGSTKYNEKFKGRATISRDNSKNTLYLQMNSLRAEDTAVYYCARGGRLSWDFDVWGQGTLVTVSS VL: DIQMTQSPSSLSASVGDRVTITCRASQDISRYLAWYQQKPGKAPKLLIYAASSLQSGVPSRFSGSGSGTDFTLTISSLQPEDFATYYCAAYDYSLGGYVFGDGTKVEIKR | 6 nM | Fab IC50 (nM), inhibition of PCSK9 on LDL uptake (Exopolar assay) [3]: 146 nM
AX9 Fab (Fab, V domains shown) VH: EVQLLESGGGLVQPGGSLRLSCKASGYTFSSYWMHWVRQAPGKGLEWIGRIDPYNGGTKYNEKFKGKATISRDNSKNTLYLQMNSLRAEDTAVYYCARYGYYLGSYAMDYWGQGTLVTVSS VL: DIQMTQSPSSLSASVGDRVTITCRASQDVSKYLAWYQQKPGKAPKLLIYAASSLQSGVPSRFSGSGSGTDFTLTISSLQPEDFATYYCQVYDSSPNAYVFGGGTKVEIKR | 23.9 nM | Fab IC50 (nM), inhibition of PCSK9 on LDL uptake (Exopolar assay) [3]: 287 nM
AX422 Fab (Fab, V domains shown, also called AX189_VH 55N to S) VH: EVQLLESGGGLVQPGGSLRLSCKASGYTFSSYWMHWVRQAPGKGLEWIGRIDPYSGGTKYNEKFKGKATISRDNSKNTLYLQMNSLRAEDTAVYYCARYGYYLGSYAMDYWGQGTLVTVSS VL: DIQMTQSPSSLSASVGDRVTITCRASQDVSRYLTWYQQKPGKAPKLLIYAASSLQSGVPSRFSGSGSGTDFTLTISSLQPEDFATYYCQAYDYSLSGYVFGGGTKVEIK | 4.1 nM | –
AX424 IgG2 (antibody, V domains shown, also called AX424 (55N to T)) VH: EVQLLESGGGLVQPGGSLRLSCKASGYTFSSYWMHWVRQAPGKGLEWIGRIDPYTGGTKYNEKFKGKATISRDNSKNTLYLQMNSLRAEDTAVYYCARYGYYLGSYAMDYWGQGTLVTVSS VL: DIQMTQSPSSLSASVGDRVTITCRASQDVSRYLTWYQQKPGKAPKLLIYAASSLQSGVPSRFSGSGSGTDFTLTISSLQPEDFATYYCQAYDYSLSGYVFGGGTKVEIKR | – | Kd [1]: 2.16 nM; Kd [2]: 2.36 nM; IgG IC50 (nM), inhibition of PCSK9 on LDL uptake (Exopolar assay) [3]: 6 nM
AX425 Fab (Fab, V domains shown, also called AX189_VH 55N to D) VH: EVQLLESGGGLVQPGGSLRLSCKASGYTFSSYWMHWVRQAPGKGLEWIGRIDPYDGGTKYNEKFKGKATISRDNSKNTLYLQMNSLRAEDTAVYYCARYGYYLGSYAMDYWGQGTLVTVSS VL: DIQMTQSPSSLSASVGDRVTITCRASQDVSRYLTWYQQKPGKAPKLLIYAASSLQSGVPSRFSGSGSGTDFTLTISSLQPEDFATYYCQAYDYSLSGYVFGGGTKVEIK | 17.6 nM | –
AX193 Fab (Fab, V domains shown) VH: EVQLLESGGGLVQPGGSLRLSCKASGYTFSSYWMHWVRQAPGKGLEWIGRIDPYNGGTKYNEKFKGKATISRDNSKNTLYLQMNSLRAEDTAVYYCARYGYYLGSYAMDYWGQGTLVTVSS VL: DIQMTQSPSSLSASVGDRVTITCRASQAISKYLNWYQQKPGKAPKLLIYAASSLQSGVPSRFSGSGSGTDFTLTISSLQPEDFATYYCESYDYSLGRYVFGGGTKVEIK | 7 nM | –
AX424 Fab (Fab, V domains shown, also called AX189_VH 55N to T) VH: EVQLLESGGGLVQPGGSLRLSCKASGYTFSSYWMHWVRQAPGKGLEWIGRIDPYTGGTKYNEKFKGKATISRDNSKNTLYLQMNSLRAEDTAVYYCARYGYYLGSYAMDYWGQGTLVTVSS VL: DIQMTQSPSSLSASVGDRVTITCRASQDVSRYLTWYQQKPGKAPKLLIYAASSLQSGVPSRFSGSGSGTDFTLTISSLQPEDFATYYCQAYDYSLSGYVFGGGTKVEIK | 4.2 nM | –
AX421 Fab (Fab, V domains shown, also called AX189_VH 56G to E) VH: EVQLLESGGGLVQPGGSLRLSCKASGYTFSSYWMHWVRQAPGKGLEWIGRIDPYNEGTKYNEKFKGKATISRDNSKNTLYLQMNSLRAEDTAVYYCARYGYYLGSYAMDYWGQGTLVTVSS VL: DIQMTQSPSSLSASVGDRVTITCRASQDVSRYLTWYQQKPGKAPKLLIYAASSLQSGVPSRFSGSGSGTDFTLTISSLQPEDFATYYCQAYDYSLSGYVFGGGTKVEIK | 6.7 nM | –
AX197 Fab (Fab, V domains shown) VH: EVQLLESGGGLVQPGGSLRLSCKASGYTFSSYWMHWVRQAPGKGLEWIGRIDPYNGGTKYNEKFKGKATISRDNSKNTLYLQMNSLRAEDTAVYYCARYGYYLGSYAMDYWGQGTLVTVSS VL: DIQMTQSPSSLSASVGDRVTITCRASQAISRYLAWYQQKPGKAPKLLIYAASSLQSGVPSRFSGSGSGTDFTLTISSLQPEDFATYYCQAYDYSLGHYVFGGGTKVEIK | 5.6 nM | –
AX198 Fab (Fab, V domains shown) VH: EVQLLESGGGLVQPGGSLRLSCKASGYTFSSYWMHWVRQAPGKGLEWIGRIDPYNGGTKYNEKFKGKATISRDNSKNTLYLQMNSLRAEDTAVYYCARYGYYLGSYAMDYWGQGTLVTVSS VL: DIQMTQSPSSLSASVGDRVTITCRASQAVSSYLNWYQQKPGKAPKLLIYAASSLQSGVPSRFSGSGSGTDFTLTISSLQPEDFATYYCEAYDYSLGGWVFGGGTKVEIK | 4.3 nM | –

Second part, led by results:

Kd [4] | Binder | also measured
26.2 nM | AX199 Fab (Fab, V domains shown) VH: EVQLLESGGGLVQPGGSLRLSCKASGYTFSSYWMHWVRQAPGKGLEWIGRIDPYNGGTKYNEKFKGKATISRDNSKNTLYLQMNSLRAEDTAVYYCARYGYYLGSYAMDYWGQGTLVTVSS VL: DIQMTQSPSSLSASVGDRVTITCRASQSVSNYLHWYQQKPGKAPKLLIYAASSLQSGVPSRFSGSGSGTDFTLTISSLQPEDFATYYCQAYDYSLGPYVFGGGTKVEIK | –
32.8 nM | AX423 Fab (Fab, V domains shown, also called AX189_VH 56G to T) VH: EVQLLESGGGLVQPGGSLRLSCKASGYTFSSYWMHWVRQAPGKGLEWIGRIDPYNTGTKYNEKFKGKATISRDNSKNTLYLQMNSLRAEDTAVYYCARYGYYLGSYAMDYWGQGTLVTVSS VL: DIQMTQSPSSLSASVGDRVTITCRASQDVSRYLTWYQQKPGKAPKLLIYAASSLQSGVPSRFSGSGSGTDFTLTISSLQPEDFATYYCQAYDYSLSGYVFGGGTKVEIK | –
6.3 nM | AX189 Fab (Fab, V domains shown, The heavy chain is the Fd chain) VH: EVQLLESGGGLVQPGGSLRLSCKASGYTFSSYWMHWVRQAPGKGLEWIGRIDPYNGGTKYNEKFKGKATISRDNSKNTLYLQMNSLRAEDTAVYYCARYGYYLGSYAMDYWGQGTLVTVSS VL: DIQMTQSPSSLSASVGDRVTITCRASQDVSRYLTWYQQKPGKAPKLLIYAASSLQSGVPSRFSGSGSGTDFTLTISSLQPEDFATYYCQAYDYSLSGYVFGGGTKVEIKR | Fab IC50 (nM), inhibition of PCSK9 on LDL uptake (Exopolar assay) [3]: 31 nM
18.3 nM | AX196 Fab (Fab, V domains shown) VH: EVQLLESGGGLVQPGGSLRLSCKASGYTFSSYWMHWVRQAPGKGLEWIGRIDPYNGGTKYNEKFKGKATISRDNSKNTLYLQMNSLRAEDTAVYYCARYGYYLGSYAMDYWGQGTLVTVSS VL: DIQITQSPSSLSASVGDRVTITCRASQDVSRYLAWYQQKPGKAPKLLIYAASSLQSGVPSRFSGSGSGTDFTLTISSLQPEDFATYYCESYDYSLSHYVFGGGTKVEIK | –
9.9 nM | AX195 Fab (Fab, V domains shown) VH: EVQLLESGGGLVQPGGSLRLSCKASGYTFSSYWMHWVRQAPGKGLEWIGRIDPYNGGTKYNEKFKGKATISRDNSKNTLYLQMNSLRAEDTAVYYCARYGYYLGSYAMDYWGQGTLVTVSS VL: DIQMTQSPSSLSASVGDRVTITCRASQAVSKYLAWYQQKPGKAPKLLIYAASSLQSGVPSRFSGSGSGTDFTLTISSLQPEDFATYYCQAYDYSLGDYVFGGGTKVEIK | –
6.1 nM | AX194 Fab (Fab, V domains shown) VH: EVQLLESGGGLVQPGGSLRLSCKASGYTFSSYWMHWVRQAPGKGLEWIGRIDPYNGGTKYNEKFKGKATISRDNSKNTLYLQMNSLRAEDTAVYYCARYGYYLGSYAMDYWGQGTLVTVSS VL: DIQMTQSPSSLSASVGDRVTTTCRASQAVSRYLTWYQQKPGKAPKLLIYAASSLQSGVPSRFSGSGSGTDFTLTISSLQPEDFATYYCQAYDYSLGAYVFGGGTKVEIK | –
5.2 nM | AX191 Fab (Fab, V domains shown) VH: EVQLLESGGGLVQPGGSLRLSCKASGYTFSSYWMHWVRQAPGKGLEWIGRIDPYNGGTKYNEKFKGKATISRDNSKNTLYLQMNSLRAEDTAVYYCARYGYYLGSYAMDYWGQGTLVTVSS VL: DIQMTQSPSSLSASVGDRVTITCRASQDISKYLAWYQQKPGKAPKLLIYAASSLQSGVPSRFSGSGSGTDFTLTISSLQPEDFATYYCQAYDYSSSAYVFGGGTKVEIK | Fab IC50 (nM), inhibition of PCSK9 on LDL uptake (Exopolar assay) [3]: 13 nM
9.6 nM | AX200 Fab (Fab, V domains shown) VH: EVQLLESGGGLVQPGGSLRLSCKASGYTFSSYWMHWVRQAPGKGLEWIGRIDPYNGGTKYNEKFKGKATISRDNSKNTLYLQMNSLRAEDTAVYYCARYGYYLGSYAMDYWGQGTLVTVSS VL: DIQMTQSPSSLSASVGDRVTITCRASQDVSKYLAWYQQKPGKAPKLLIYAASSLQSGVPSRFSGSGSGTDFTLTISSLQPEDFATYYCEAYDYSLSHYVFGGGTKVEIK | –
